In patent publication US20130202593A1:

Experiments:
[1] = target: ΔRING-ΔBOX TRIM21 (human) (UniProt P19474); assay: steady-state fluorescence titration: quenching of intrinsic TRIM21 tryptophan fluorescence on titration of IgG
[2] = target: recombinant full-length TRIM21 (human) (UniProt P19474); assay: as above
IgG [3] = assay: fluorescence titration spectroscopy
IgG [4] = assay: steady-state fluorescence titration (quenching of TRIM21 tryptophan fluorescence on titration of IgG)

EC50 (read off the curve) [1] | EC50 (read off the curve) [2] | Kd (IgG [3]) | Kd (IgG [4]) | Substance
3 nM | 1 nM |  |  | IgG (antibody)
 |  | < 1 nM | 0.9 nM | ΔRING-ΔBOX TRIM21 (from UniProt P19474 129-475) (receptor)
 |  | < 1 nM | 0.6 nM | recombinant full-length TRIM21 (from UniProt P19474 1-475) (receptor)
